± gives the standard deviation of the averaged measurements.
Assay: total protein half-life in vivo (active degradation + dilution); higher = more stable protein
[1] = E. coli NCM3722 delta-clpP delta-lon delta-hslV, growth: N-lim chemostat, doubling time 6 h
[2] = E. coli NCM3722 delta-clpP, growth: N-lim chemostat, doubling time 6 h
[3] = E. coli NCM3722 delta-hslV, growth: N-lim chemostat, doubling time 6 h
[4] = E. coli NCM3722 delta-lon, growth: N-lim chemostat, doubling time 6 h
[5] = E. coli NCM3722 delta-smpB, growth: N-lim chemostat, doubling time 6 h
[6] = wild type E. coli NCM3722, growth: C-lim chemostat, doubling time 3 h
[7] = wild type E. coli NCM3722, growth: C-lim chemostat, doubling time 6 h
[8] = wild type E. coli NCM3722, growth: C-lim chemostat, doubling time 12 h
[9] = wild type E. coli NCM3722, growth: N-lim chemostat, doubling time 6 h
[10] = wild type E. coli NCM3722, growth: N-lim chemostat, doubling time 12 h
[11] = wild type E. coli NCM3722, growth: P-lim chemostat, doubling time 6 h
[12] = wild type E. coli NCM3722, growth: P-lim chemostat, doubling time 12 h

Sequence | total protein half-life in vivo [1] [h] | total protein half-life in vivo [2] [h] | total protein half-life in vivo [3] [h] | total protein half-life in vivo [4] [h] | total protein half-life in vivo [5] [h] | total protein half-life in vivo [6] [h] | total protein half-life in vivo [7] [h] | total protein half-life in vivo [8] [h] | total protein half-life in vivo [9] [h] | total protein half-life in vivo [10] [h] | total protein half-life in vivo [11] [h] | total protein half-life in vivo [12] [h]
MTINDSAISEQGMCEEEQVARIAWFYYHDGLTQSEISDRLGLTRLKVSRLLEKGHQSGIIRVQINSRFEGCLEYETQLRRQFSLQHVRVIPGLADADVGGRLGIGAAHMLMSLLQPQQMLAIGFGEATMNTLQRLSGFISSQQIRLVTLSGGVGSYMTGIGQLNAACSVNIIPAPLRASSADIARTLKNENCVKDVLLAAQAADVAIVGIGAVSQQDDATIIRSGYISQGEQLMIGRKGAVGDILGYFFDAKGDVVTNIKIHNELIGLPLSALKTIPVRVGVAGGENKAEAIAAAMKGGYINALVTDQDTAAAILRS | 5.64 ± 1.1 | 5.69 ± 0.67 | 4.76 ± 0.47 | 4.58 ± 0.45 | 4.6 ± 0.058 | 2.88 ± 0.2 | 4.551 ± 0.016 | 7.78 | 4.64 ± 0.19 | 8.2 ± 0.58 | 5.08 | –
MTIRSYKNLNLVRANIETESRQFIENKNYSIQSIGPMPGSRAGLRVVFTRPGVNLATVDIFYNGDGSTTIQYLTGANRSLGQELADHLFETINPAEFEQVNMVLQGFVETSVLPVLELSADESHIEFREHSRNAHTVVWKIISTSYQDELTVSLHITTGKLQIQGRPLSCYRVFTFNLAALLDLQGLEKVLIRQEDGKANIVQQEVARTYLQTVMADAYPHLHVTAEKLLVSGLCVKLAAPDLPDYCMLLYPELRTIEGVLKSKMSGLGMPVQQPAGFGTYFDKPAAHYILKPQFAATLRPEQINIISTAYTFFNVERHSLFHMETVVDASRMISDMARLMGKATRAWGIIKDLYIV | 5.71 | – | 1.859 ± 0.0024 | 1.2 | 0.954 | 1.22 | – | 3.37 | 1.41 | 4.02 ± 2.5 | 1.17 | 3.31 ± 1.4
MTITKLAWRDLVPDTDSYQEIFAQPHLIDENDPLFSDTQPRLQFALEQLLHTRASSSFMLAKAPEESEYLNLIANAARTLQSDAGQLVGGHYEVSGHSIRLRHAVSADDNFATLTQVVAADWVEAEQLFGCLRQFNGDITLQPGLVHQANGGILIISLRTLLAQPLLWMRLKNIVNRERFDWVAFDESRPLPVSVPSMPLKLKVILVGERESLADFQEMEPELSEQAIYSEFEDTLQIVDAESVTQWCRWVTFTARHNHLPAPGADAWPILIREAARYTGEQETLPLSPQWILRQCKEVASLCDGDTFSGEQLNLMLQQREWREGFLAERMQDEILQEQILIETEGERIGQINALSVIEFPGHPRAFGEPSRISCVVHIGDGEFTDIERKAELGGNIHAKGMMIMQAFLMSELQLEQQIPFSASLTFEQSYSEVDGDSASMAELCALISALADVPVNQSIAITGSVDQFGRAQPVGGLNEKIEGFFAICQQRELTGKQGVIIPTANVRHLSLHSELVKAVEEGKFTIWAVDDVTDALPLLLNLVWDGEGQTTLMQTIQERIAQASQQEGRHRFPWPLRWLNWFIPN | 6.81 ± 0.57 | 6.24 ± 0.11 | 7.24 ± 1.1 | 6 ± 0.53 | 6.58 ± 0.43 | 3.017 ± 0.024 | 5.99 ± 0.54 | 9.75 ± 2.2 | 6.17 ± 0.21 | 13.7 ± 1.1 | 6.4 ± 0.075 | 12.6 ± 1.4
MTITPATHAISINPATGEQLSVLPWAGADDIENALQLAAAGFRDWRETNIDYRAEKLRDIGKALRARSEEMAQMITREMGKPINQARAEVAKSANLCDWYAEHGPAMLKAEPTLVENQQAVIEYRPLGTILAIMPWNFPLWQVMRGAVPIILAGNGYLLKHAPNVMGCAQLIAQVFKDAGIPQGVYGWLNADNDGVSQMIKDSRIAAVTVTGSVRAGAAIGAQAGAALKKCVLELGGSDPFIVLNDADLELAVKAAVAGRYQNTGQVCAAAKRFIIEEGIASAFTERFVAAAAALKMGDPRDEENALGPMARFDLRDELHHQVEKTLAQGARLLLGGEKMAGAGNYYPPTVLANVTPEMTAFREEMFGPVAAITIAKDAEHALELANDSEFGLSATIFTTDETQARQMAARLECGGVFINGYCASDARVAFGGVKKSGFGRELSHFGLHEFCNIQTVWKDRI | 3.43 ± 0.22 | 2.38 ± 0.15 | 2.3185 ± 0.00041 | 3.35 ± 0.57 | 2.62 ± 0.24 | 2.87 ± 0.15 | 4.72 ± 0.27 | 7.87 ± 0.72 | 2.56 ± 0.092 | 3.65 ± 0.4 | 5.341 ± 0.022 | 9.54 ± 0.88
MTITPQNLIALLPLLIVGLTVVVVMLSIAWRRNHFLNATLSVIGLNAALVSLWFVGQAGAMDVTPLMRVDGFAMLYTGLVLLASLATCTFAYPWLEGYNDNKDEFYLLVLIAALGGILLANANHLASLFLGIELISLPLFGLVGYAFRQKRSLEASIKYTILSAAASSFLLFGMALVYAQSGDLSFVALGKNLGDGMLNEPLLLAGFGLMIVGLGFKLSLVPFHLWTPDVYQGAPAPVSTFLATASKIAIFGVVMRLFLYAPVGDSEAIRVVLAIIAFASIIFGNLMALSQTNIKRLLGYSSISHLGYLLVALIALQTGEMSMEAVGVYLAGYLFSSLGAFGVVSLMSSPYRGPDADSLFSYRGLFWHRPILAAVMTVMMLSLAGIPMTLGFIGKFYVLAVGVQAHLWWLVGAVVVGSAIGLYYYLRVAVSLYLHAPEQPGRDAPSNWQYSAGGIVVLISALLVLVLGVWPQPLISIVRLAMPLM [P0AFF0] | 7.16 | 6.36 ± 0.41 | 6.09 ± 1.6 | – | 6.08 | 3.46 | – | – | 5.29 | – | – | 11.8 ± 1.4
MTIVRIDAEARWSDVVIHNNTLYYTGVPENLDADAFEQTANTLAQIDAVLEKQGSNKSSILDATIFLADKNDFAAMNKAWDAWVVAGHAPVRCTVQAGLMNPKYKVEIKIVAAV [P0AEB7] | 5.7 ± 0.14 | 5.4 ± 0.17 | 4.95 ± 0.36 | 5.51 ± 0.45 | 5.45 ± 0.95 | 3.02 ± 0.18 | 7.21 ± 0.84 | 13.5 ± 0.29 | 6.27 ± 1.3 | 11.2 ± 0.66 | 6.16 ± 0.16 | 12 ± 2.1
MTKHYDYIAIGGGSGGIASINRAAMYGQKCALIEAKELGGTCVNVGCVPKKVMWHAAQIREAIHMYGPDYGFDTTINKFNWETLIASRTAYIDRIHTSYENVLGKNNVDVIKGFARFVDAKTLEVNGETITADHILIATGGRPSHPDIPGVEYGIDSDGFFALPALPERVAVVGAGYIAVELAGVINGLGAKTHLFVRKHAPLRSFDPMISETLVEVMNAEGPQLHTNAIPKAVVKNTDGSLTLELEDGRSETVDCLIWAIGREPANDNINLEAAGVKTNEKGYIVVDKYQNTNIEGIYAVGDNTGAVELTPVAVAAGRRLSERLFNNKPDEHLDYSNIPTVVFSHPPIGTVGLTEPQAREQYGDDQVKVYKSSFTAMYTAVTTHRQPCRMKLVCVGSEEKIVGIHGIGFGMDEMLQGFAVALKMGATKKDFDNTVAIHPTAAEEFVTMR | 5.12 ± 0.23 | 5.46 ± 0.48 | 4.85 ± 0.18 | 5.81 ± 0.49 | 4.64 ± 0.066 | 3.02 ± 0.17 | 6.27 ± 0.5 | 11.5 ± 0.61 | 5.08 ± 0.14 | 8.33 ± 0.71 | 6.07 ± 0.31 | 13 ± 0.92

— the supplement of paper PMC11246515
